Assay results taken from patent US8541373B2, “BChE albumin fusions for the treatment of cocaine abuse” (priority 2009, dated 2013).
Values joined by “and” are separate entries in the source; they are usually repeats but may differ in a detail not shown here. Equal values may be shown once. Read-outs that look alike come from different tables or passages of the source.

Key:
cocaine = assay: AlbuBChE PK/PD analysis, sigmoidal inhibitory effect Emax model (cocaine AUC)
Source text: AlbuBChE PK/PD relationship was defined using the computer software WinNonlin Professional (Version 4.0.1 Pharsight Corporation, USA). Specifically the direct sigmoidal inhibitory Effect Emax model was use in which maximum effect (Emax) as measured by cocaine AUC was assumed at AlbuBChE concentration of zero. The model equation can be described as follows: Inhibitory Effect Sigmoid Emax, C=0 at Emax, C=infinity at Eo E=Emax−(Emax−E0)*(C**Gamma/(C**Gamma+EC50**Gamma))
The PD parameter used in the analysis was cocaine AUC. PK parameters used in the model were AlbuBChE plasma concentrations at 2, 48, 96, 120, and 240 hr post-AlbuBChE dose. Due to the fact that AlbuBChE concentration was not measured at 2 hr post-AlbuBChE dose, the concentration at 3 hr postdose was used in the analysis with the assumptions that AlbuBChE concentration at 3 hr post AlbuBChE dose may reflect AlbuBChE conc. at 2 hr post AlbuBChE dose.

[1] = rats; cited from earlier work
[2] = AlbuBChE serum pharmacokinetics after single 5 mg/kg IM dose (ELISA); conditions: for AlbuBChE serum concentration, individual Squirrel monkeys: 5 mg/kg IM
Method: To evaluate AlbuBChE pharmacokinetics and pharmacodynamics following a single 5 mg/kg intramuscular injection of AlbuBChE to Squirrel monkeys. AlbuBChE pharmacodynamic effect was measured following cocaine IV administration at a dose of 1 mg/kg in control animals or at 2, 72 and 96 hr post-AlbuBChE dose.
Blood samples (0.4 mL) were collected from the femoral vein and placed into serum separator tubes (SST) at pre-dose, 24, 72, 96 & 336 hrs post-dose (samples collected at 336 hr (14 days) post-dose were intended to evaluate immunogenicity. The samples were also analyzed for AlbuBChE concentration). Tubes were maintained at room temperature for at least 1 hour, but not to exceed 4 hours prior to centrifugation. Samples were centrifuged and at least 200 μL of serum was harvested and maintained on dry ice prior to storage at approximately −70° C.
Blocking is done with 2% casein in phosphate buffered saline (PBS), 200 μL/well, 2 hours at room temperature. After washing, 100 μL of diluted serum samples are added to the plates along with standards. Standards are generated through 2.6 fold, serial dilution of AlbuBChE from 420 to 5.2 ng/mL. Serum samples and standards are maintained at 10% serum by dilution with buffer containing pooled cynomolgus monkey serum. A wash step precedes detection with 100 μl of anti-HSA mAb-6502-HRP at 0.04 μg/mL for 1 hour. Wells are washed again, prior to developing with 100 μl, of tetramethylbenzidine substrate. After 15 minutes the reaction is terminated with 100 μL/well of 1N H2SO4 and read on SpectraMax plate reader at 450/570 nm. Values for unknown serum samples are calculated by interpolation of standard curve generated by 5-parameter fit of AlbuBChE standards. Serum samples collected at predose and on Day 14 postdose were also analyzed for immunogenicity.
AlbuBChE pharmacokinetic parameter values were determined using serum concentration-time profiles for individual animals. The computer software WinNonlin Professional (Version 4.0.1 Pharsight Corporation, USA) was used. Specifically the model for non-compartmental analysis with extravascular input was applied.

[3] = system: cocaine-induced reinstatement; assay: Reinstatement of cocaine self-administration; assay type: in vivo, squirrel monkeys (Saimiri sciureus)
Method: The blood level data were analyzed separately for each metabolite and time point (5 or 30 min). […] The self-administration data were analyzed separately for response rate or injections following either vehicle treatment or AlbuBChE treatment. Control data were included in the analysis by taking the average of the last 3 days for the immediately preceding baseline condition. A within subjects ANOVA was then performed with follow-up tests contrasting days following vehicle or AlbuBChE with the control. For the reinstatement tests, a two-way ANOVA was performed for both response rate and injections, with time post vehicle or AlbuBChE as the within-subjects factor and pretreatment (vehicle or AlbuBChE) as the between subjects factor. Follow-up contrast compared vehicle and AlbuBChE at each time point.

[4] = AlbuBChE antibodies and blood level after repeated AlbuBChE injections
Source text: The monkeys trained to self-administer cocaine and also tested on the reinstatement procedure received a total of 4 injections of AlbuBChE. Blood was taken for determination of AlbuBChE antibodies after the first, second and fourth AlbuBChE injections.

[5] = rats, i.v. injection, cited from earlier work
[6] = individual Squirrel monkeys, single IM 5 mg/kg
[7] = individual Squirrel monkeys, single IM 5 mg/kg, apparent, first sample at 24 hr
[8] = mean of 3 Squirrel monkeys, single IM 5 mg/kg

AlbuBChE
AlbuBChE Conc. used in PK/PD analysis, individual animals (cocaine; 0.2 mg/kg IM, time 2 hr): 107 ng/mL and 257 ng/mL and 196 ng/mL
AlbuBChE Conc. used in PK/PD analysis, individual animals (cocaine; 0.2 mg/kg IM, time 48 hr): 0 ng/mL and 66.4 ng/mL and 80.7 ng/mL
AlbuBChE Conc. used in PK/PD analysis, individual animals (cocaine; 0.2 mg/kg IM, time 96 hr): 0 ng/mL (2×) and 30 ng/mL
AlbuBChE Conc. used in PK/PD analysis, individual animals (cocaine; 0.2 mg/kg IM, time 120 hr): 0 ng/mL
AlbuBChE Conc. used in PK/PD analysis, individual animals (cocaine; 0.2 mg/kg IM, time 240 hr): 0 ng/mL
Cocaine AUC(0-t), individual animals (cocaine; 0.2 mg/kg IM, cocaine 1 mg/kg IV 2 hr post-AlbuBChE): 13317 ng·min/mL and 10812 ng·min/mL and 11504 ng·min/mL
Cocaine AUC(0-t), individual animals (cocaine; 0.2 mg/kg IM, cocaine 1 mg/kg IV 48 hr post-AlbuBChE): 8550 ng·min/mL and 7315 ng·min/mL and 7276 ng·min/mL
Cocaine AUC(0-t), individual animals (cocaine; 0.2 mg/kg IM, cocaine 1 mg/kg IV 96 hr post-AlbuBChE): 13936 ng·min/mL and 8978 ng·min/mL and 10522 ng·min/mL
Cocaine AUC(0-t), individual animals (cocaine; 0.2 mg/kg IM, cocaine 1 mg/kg IV 120 hr post-AlbuBChE): 11293 ng·min/mL and 11428 ng·min/mL and 12111 ng·min/mL
Cocaine AUC(0-t), individual animals (cocaine; 0.2 mg/kg IM, cocaine 1 mg/kg IV 240 hr post-AlbuBChE): 13669 ng·min/mL and 12762 ng·min/mL and 14649 ng·min/mL
AlbuBChE Conc. used in PK/PD analysis, individual animals (cocaine; 1 mg/kg IM, time 2 hr): 1362 ng/mL and 918 ng/mL and 1777 ng/mL
AlbuBChE Conc. used in PK/PD analysis, individual animals (cocaine; 1 mg/kg IM, time 48 hr): 389 ng/mL and 363 ng/mL and 264 ng/mL
AlbuBChE Conc. used in PK/PD analysis, individual animals (cocaine; 1 mg/kg IM, time 96 hr): 87 ng/mL and 132 ng/mL and 75 ng/mL
AlbuBChE Conc. used in PK/PD analysis, individual animals (cocaine; 1 mg/kg IM, time 120 hr): 36 ng/mL and 72 ng/mL and 38 ng/mL
AlbuBChE Conc. used in PK/PD analysis, individual animals (cocaine; 1 mg/kg IM, time 240 hr): 0 ng/mL
Cocaine AUC(0-t), individual animals (cocaine; 1 mg/kg IM, cocaine 1 mg/kg IV 2 hr post-AlbuBChE): 6597 ng·min/mL and 9746 ng·min/mL and 7297 ng·min/mL
Cocaine AUC(0-t), individual animals (cocaine; 1 mg/kg IM, cocaine 1 mg/kg IV 48 hr post-AlbuBChE): 6025 ng·min/mL and 5033 ng·min/mL and 6839 ng·min/mL
Cocaine AUC(0-t), individual animals (cocaine; 1 mg/kg IM, cocaine 1 mg/kg IV 96 hr post-AlbuBChE): 9166 ng·min/mL and 9925 ng·min/mL and 11042 ng·min/mL
Cocaine AUC(0-t), individual animals (cocaine; 1 mg/kg IM, cocaine 1 mg/kg IV 120 hr post-AlbuBChE): 10451 ng·min/mL and 11561 ng·min/mL and 12568 ng·min/mL
Cocaine AUC(0-t), individual animals (cocaine; 1 mg/kg IM, cocaine 1 mg/kg IV 240 hr post-AlbuBChE): 14533 ng·min/mL and 13998 ng·min/mL and 14560 ng·min/mL
AlbuBChE Conc. used in PK/PD analysis, individual animals (cocaine; 5 mg/kg IM, time 2 hr): 3740 ng/mL and 9627 ng/mL and 4923 ng/mL
AlbuBChE Conc. used in PK/PD analysis, individual animals (cocaine; 5 mg/kg IM, time 48 hr): 1330 ng/mL and 2644 ng/mL and 1605 ng/mL
AlbuBChE Conc. used in PK/PD analysis, individual animals (cocaine; 5 mg/kg IM, time 96 hr): 415 ng/mL and 733 ng/mL and 455 ng/mL
AlbuBChE Conc. used in PK/PD analysis, individual animals (cocaine; 5 mg/kg IM, time 120 hr): 217 ng/mL and 326 ng/mL and 224 ng/mL
AlbuBChE Conc. used in PK/PD analysis, individual animals (cocaine; 5 mg/kg IM, time 240 hr): 58 ng/mL and 71 ng/mL and 63 ng/mL
Cocaine AUC(0-t), individual animals (cocaine; 5 mg/kg IM, cocaine 1 mg/kg IV 2 hr post-AlbuBChE): 4594 ng·min/mL and 3039 ng·min/mL and 2234 ng·min/mL
Cocaine AUC(0-t), individual animals (cocaine; 5 mg/kg IM, cocaine 1 mg/kg IV 48 hr post-AlbuBChE): 3323 ng·min/mL and 2628 ng·min/mL and 3095 ng·min/mL
Cocaine AUC(0-t), individual animals (cocaine; 5 mg/kg IM, cocaine 1 mg/kg IV 96 hr post-AlbuBChE): 6428 ng·min/mL and 6887 ng·min/mL and 6556 ng·min/mL
Cocaine AUC(0-t), individual animals (cocaine; 5 mg/kg IM, cocaine 1 mg/kg IV 120 hr post-AlbuBChE): 7954 ng·min/mL and 9620 ng·min/mL and 10560 ng·min/mL
Cocaine AUC(0-t), individual animals (cocaine; 5 mg/kg IM, cocaine 1 mg/kg IV 240 hr post-AlbuBChE): 11173 ng·min/mL and 13745 ng·min/mL and 13937 ng·min/mL
AlbuBChE serum concentration that may result in 50% decrease in cocaine concentration (EC50) (cocaine; cynomolgus monkeys, sigmoidal inhibitory effect Emax model, PD parameter cocaine AUC): ~0.6 mg/L
Side effects of intravenous administration [1]: modest increase in blood pressure and mild lethargy
AlbuBChE serum concentration, individual Squirrel monkeys ([2]; 24 hr post dose): 2340.2 ng/mL and 2296.7 ng/mL and 2036.7 ng/mL
AlbuBChE serum concentration, individual Squirrel monkeys ([2]; 72 hr post dose): 436.9 ng/mL and 517.7 ng/mL and 433.7 ng/mL
AlbuBChE serum concentration, individual Squirrel monkeys ([2]; 96 hr post dose): 247.5 ng/mL (2×) and 233.5 ng/mL
AlbuBChE serum concentration, individual Squirrel monkeys ([2]; 336 hr post dose): 23.4 ng/mL and 19.0 ng/mL and 7.0 ng/mL
t½ ([2]; individual Squirrel monkeys (MKY 547, 3434, 53B), single IM 5 mg/kg AlbuBChE, serum, non-compartmental): 58.8 h and 45.5 h and 65.5 h
AUC % Extrap [2, 6]: 1.17% and 0.380% and 1.61%
AUC(0-t) [2, 6]: 136.268 µg·h/mL and 120.596 µg·h/mL and 135.454 µg·h/mL
AUC(0-∞) [2, 6]: 137.881 µg·h/mL and 121.056 µg·h/mL and 137.666 µg·h/mL
Cmax [2, 7]: 2.297 µg/mL and 2.037 µg/mL and 2.34 µg/mL
tmax [2, 7]: 24 h
AUC(0-t) Mean [2, 8]: 130.773 µg·h/mL
AUC(0-∞) Mean [2, 8]: 132.201 µg·h/mL
Reinstatement of responding (response rate and injections) ([3]; 5 mg/kg i.m., 0.3 mg/kg cocaine i.v., 2 hr time point): significantly blocked
Reinstatement of responding (responses and injections) ([3]; 5 mg/kg, 0.1 mg/kg cocaine as reinstatement dose): significant at 2 hrs
AlbuBChE antibody levels ([4]; following the first 2 injections, level of detection titer 20): below the level of detection
AlbuBChE antibody titer, individual monkeys ([4]; following the fourth injection): 21 and 43 and 643
Concentration of AlbuBChE in the blood, individual monkeys ([4]; one week following the AlbuBChE injection (fourth)): 0.027 µg/mL and 0.055 µg/mL and 0.053 µg/mL
Plasma half-life [5]: approximately 8 hours
Plasma half-life ([5]; listed as BChE-albumin fusion): 8 h
